Five molecules from patent publication CN113583125A (SUZHOU CENTERGENE PHARMACEUTICALS CO LTD, dated 2021) can be followed below.

Changes are numbered by the printed parent chain.

In assay [1] the target is T1, hCG (人绒毛膜促性腺激素) (human, UniProt P0DN86 21-165).
T1 construct: In the resin experiments hCG comes from the supernatant of CHO cells that express it stably
As to the kind of experiment: affinity chromatography, VHH coupled to CNBr-agarose, hCG from CHO supernatant, elution at pH 3, SDS-PAGE.

The target of assay [2] is T2, FSH (卵泡刺激素) (human, UniProt P01225 19-129).
T2 construct: also called hFSH
T2 sequence (chain, as listed by the source, chain 1 of 2): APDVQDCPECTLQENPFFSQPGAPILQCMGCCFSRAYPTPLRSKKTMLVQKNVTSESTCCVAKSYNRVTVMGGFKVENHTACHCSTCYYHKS
T2 sequence (P01225 19-129, chain 2 of 2): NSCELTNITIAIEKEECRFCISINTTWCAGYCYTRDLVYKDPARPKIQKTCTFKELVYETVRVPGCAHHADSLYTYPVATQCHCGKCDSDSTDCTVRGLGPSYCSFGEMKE
As to the kind of experiment: affinity purification on VHH-agarose (CNBr), SDS-PAGE of the eluate.

For assay [3], the target named is hLH (人促黄体生成素) (human, UniProt P01229 21-141). The assay is described as above.
hLH (人促黄体生成素), sequence (chain, as listed by the source, chain 1 of 2): as the sequence (chain, as listed by the source, chain 1 of 2) above
hLH (人促黄体生成素), sequence (P01229 21-141, chain 2 of 2): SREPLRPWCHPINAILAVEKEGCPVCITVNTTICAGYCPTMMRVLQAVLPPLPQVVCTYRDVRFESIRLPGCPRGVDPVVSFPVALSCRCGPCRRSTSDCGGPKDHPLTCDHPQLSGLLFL
Assay [4] has as its target T3, SEQ ID NO:1蛋白 (FSH、hCG、TSH、FSH-CTP和hLH共同α链) (Homo sapiens (Human), UniProt P01215 25-116).
T3 construct: Immunogen for the alpaca and target of the Phage ELISA screen
The assay is described as follows: Phage ELISA screen, VHH displayed on phage. On the technique in general: ELISA stands for enzyme-linked immunosorbent assay.

In assay [5] the target is T2, FSH (卵泡刺激素). As to the kind of experiment: ELISA, plate coated with 10 ug/ml FSH, VHH from 1 mg/ml in 2-fold steps, detection with anti-6xHis-HRP.

T3 sequence (P01215 25-116 limits assumed): as the sequence (chain, as listed by the source, chain 1 of 2) above
T1 sequence (chain, as listed by the source, chain 1 of 2, other chains not shown): as the sequence (chain, as listed by the source, chain 1 of 2) above

B1: 1G9E (SEQ ID NO:12, VHH-sgs-HHHHHH) (VHH)
VHH: QVQLQESGGGLVQAGGSLRLSCAASGRTGSTYDMGWFRQAPGKERESVAAINWDSARTYYASSVRGRFTISRDNAKKTVYLQMNSLKPEDTAVYTCGAGEGGTWDSWGQGTQVTVSS
As to B1, in assay [1], the binding result is “binds”.

B2: SEQ ID NO:11蛋白 (1G9E突变体, VHH-sgs-HHHHHH) (VHH)
VHH: B1 VHH with Y59H
notes: Expressed in E. coli BL21 Star(DE3) and purified on nickel; In the resin experiments it is coupled to agarose
On to B2, for which the binding result in assay [2] and in assay [3] was “binds” each time.

B3: SEQ ID NO:16蛋白 (VHH-sgs-HHHHHH) (VHH)
VHH: QVQVVESGGGLVQAGDSLRLSCAASGRTFSSYAMGWFRQAPGKEREAVAAITWSGGSTYYADSVKGRFTISRDNTKNTVYLQMNSLKPEDTAVYYCAARDRADGSSWWDYWGQGTQVTVSS
Consider B3, for which the binding result in assay [1] and in assay [4] was “binds” throughout.

B4: SEQ ID NO:18蛋白 (VHH-sgs-HHHHHH) (VHH)
VHH: B3 VHH with V4L, A14T, D16G, K43E, D62A, K65Q, T75A
As to B4, the binding result in assay [1] and in assay [4] was “binds” throughout.

B5: SEQ ID NO:17蛋白 (VHH-sgs-HHHHHH) (VHH)
VHH: B3 VHH with V4L, A14T, D16G, K43E, I51L, T52S, D62A, K65Q, T75A
notes: In the resin experiments it is coupled to agarose
Take B5: the binding result in assay [3], in assay [4] and in assay [5] was “binds” in each case.
